# Results as given in the supplement of paper PMC9112550, “Optimization of the antimicrobial peptide Bac7 by deep mutational scanning” (BMC Biology, 2022).
# Tested on: Escherichia coli TOP10
# Assay: shrunken log2 fold change of peptide-encoding DNA abundance (4.5 h post-induction vs induction); higher = less antimicrobial activity (less host growth inhibition)
# Settings: time post-induction: 4.5 h; library: site-saturation at positions 5, 18, 19, 20
# 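Further: peptides expressed intracellularly from a pBAD plasmid library in pooled LB shake-flask culture, induced with 0.3% L-arabinose, DNA abundance read by NGS, three biological replicates, DESeq2 with apeglm shrinkage.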
row,Sequence,shrunken log2 fold change
1,RRIRFRPPRLPRPRPRPHTSPRP,-0.907
2,RRIRDRPPRLPRPRPRPCFRPRP,-0.157
3,RRIRGRPPRLPRPRPRPYSVPRP,0.0284
4,RRIRMRPPRLPRPRPRPMDVPRP,-0.0209
5,RRIRCRPPRLPRPRPRPRPWPRP,0.432
6,RRIRERPPRLPRPRPRPKVGPRP,0.0685
7,RRIRHRPPRLPRPRPRPIKCPRP,-0.87
8,RRIRKRPPRLPRPRPRPGCGPRP,0.761
9,RRIRMRPPRLPRPRPRPYAGPRP,-0.0412
10,RRIRRRPPRLPRPRPRPFGPPRP,0.165
11,RRIRTRPPRLPRPRPRPTFIPRP,-0.39
12,RRIRTRPPRLPRPRPRPIDGPRP,0.0685
13,RRIRLRPPRLPRPRPRPFQFPRP,-0.255
14,RRIRIRPPRLPRPRPRPDCIPRP,0.0653
15,RRIRGRPPRLPRPRPRPMGQPRP,0.651
16,RRIRFRPPRLPRPRPRPSPMPRP,1.17
17,RRIRPRPPRLPRPRPRPYSHPRP,-1.42
18,RRIRMRPPRLPRPRPRPCAFPRP,0.121
19,RRIRIRPPRLPRPRPRPIVFPRP,-0.144
20,RRIRKRPPRLPRPRPRPSSSPRP,-0.94
21,RRIRCRPPRLPRPRPRPVSPPRP,0.198
22,RRIRRRPPRLPRPRPRPLMDPRP,0.235
23,RRIRGRPPRLPRPRPRPNLPPRP,0.133
24,RRIRKRPPRLPRPRPRPMNRPRP,-0.029
25,RRIRQRPPRLPRPRPRPRCEPRP,-0.128

row,Sequence,shrunken log2 fold change
1,RRIRIRPPRLPRPRPRPQKKPRP,-0.0235
2,RRIRERPPRLPRPRPRPKHQPRP,-0.0699
3,RRIRARPPRLPRPRPRPADKPRP,0.197
4,RRIRKRPPRLPRPRPRPSLYPRP,0.0834
5,RRIRWRPPRLPRPRPRPIKHPRP,-0.2
6,RRIRKRPPRLPRPRPRPMFWPRP,0.173
7,RRIRTRPPRLPRPRPRPWHRPRP,-0.126
8,RRIRKRPPRLPRPRPRPSPHPRP,-0.0333
9,RRIRNRPPRLPRPRPRPSYWPRP,-0.145
10,RRIRFRPPRLPRPRPRPLWEPRP,-0.12
11,RRIRMRPPRLPRPRPRPGWGPRP,1.2
12,RRIRNRPPRLPRPRPRPNRDPRP,-0.0094
13,RRIRLRPPRLPRPRPRPTIGPRP,-0.192
14,RRIRWRPPRLPRPRPRPDTSPRP,0.0558
15,RRIRCRPPRLPRPRPRPAQYPRP,-0.467
16,RRIRPRPPRLPRPRPRPHGKPRP,0.0675
17,RRIRHRPPRLPRPRPRPCGPPRP,-0.084
18,RRIRPRPPRLPRPRPRPRKNPRP,0.296
19,RRIRVRPPRLPRPRPRPRHAPRP,0.229
20,RRIRWRPPRLPRPRPRPVRLPRP,0.428
21,RRIRNRPPRLPRPRPRPQNKPRP,-0.666
22,RRIRIRPPRLPRPRPRPYHIPRP,-0.0511
23,RRIRYRPPRLPRPRPRPTGGPRP,-0.0407
24,RRIRQRPPRLPRPRPRPVPIPRP,-0.0341
25,RRIRLRPPRLPRPRPRPDLDPRP,-0.0167

row,Sequence,shrunken log2 fold change
1,RRIRNRPPRLPRPRPRPIVTPRP,-0.179
2,RRIRRRPPRLPRPRPRPCEQPRP,-0.0395
3,RRIRERPPRLPRPRPRPRWMPRP,0.0378
4,RRIRERPPRLPRPRPRPERRPRP,-0.0345
5,RRIRTRPPRLPRPRPRPSSVPRP,-0.139
6,RRIRVRPPRLPRPRPRPCNGPRP,0.00489
7,RRIRFRPPRLPRPRPRPNFNPRP,-0.554
8,RRIRGRPPRLPRPRPRPPWMPRP,0.373
9,RRIRNRPPRLPRPRPRPNWNPRP,-0.691
10,RRIRDRPPRLPRPRPRPYGLPRP,-0.0553
11,RRIRRRPPRLPRPRPRPQPPPRP,0.413
12,RRIRFRPPRLPRPRPRPVCNPRP,-0.0727
13,RRIRCRPPRLPRPRPRPPNMPRP,-0.302
14,RRIRSRPPRLPRPRPRPTPHPRP,0.308
15,RRIRWRPPRLPRPRPRPNNDPRP,-0.213
16,RRIRFRPPRLPRPRPRPYWFPRP,-0.0527
17,RRIRCRPPRLPRPRPRPSGKPRP,-0.327
18,RRIRFRPPRLPRPRPRPLLQPRP,0.0394
19,RRIRGRPPRLPRPRPRPNFSPRP,0.078
20,RRIRIRPPRLPRPRPRPNKGPRP,-0.137
21,RRIRQRPPRLPRPRPRPPCHPRP,0.0591
22,RRIRHRPPRLPRPRPRPFIMPRP,-0.505
23,RRIRRRPPRLPRPRPRPEDQPRP,0.196
24,RRIRARPPRLPRPRPRPNDDPRP,0.54
25,RRIRHRPPRLPRPRPRPDYWPRP,-0.187

row,Sequence,shrunken log2 fold change
1,RRIRQRPPRLPRPRPRPRGFPRP,0.0677
2,RRIRTRPPRLPRPRPRPRMFPRP,-0.0163
3,RRIRHRPPRLPRPRPRPNYTPRP,-0.529
4,RRIRARPPRLPRPRPRPEKDPRP,0.366
5,RRIRMRPPRLPRPRPRPSFRPRP,0.142
6,RRIRKRPPRLPRPRPRPHAHPRP,0.428
7,RRIRVRPPRLPRPRPRPQRAPRP,0.348
8,RRIRFRPPRLPRPRPRPLQLPRP,-0.51
9,RRIRPRPPRLPRPRPRPAHVPRP,0.0491
10,RRIRSRPPRLPRPRPRPCNSPRP,-0.0626
11,RRIRKRPPRLPRPRPRPEHAPRP,1.12
12,RRIRGRPPRLPRPRPRPWQYPRP,-0.0381
13,RRIRSRPPRLPRPRPRPLNGPRP,-0.322
14,RRIRWRPPRLPRPRPRPCPLPRP,-0.247
15,RRIRFRPPRLPRPRPRPTMLPRP,-0.423
16,RRIRLRPPRLPRPRPRPSRWPRP,-0.279
17,RRIRDRPPRLPRPRPRPLMWPRP,2.47
18,RRIRDRPPRLPRPRPRPETVPRP,-0.0114
19,RRIRDRPPRLPRPRPRPLECPRP,0.0215
20,RRIRWRPPRLPRPRPRPRPSPRP,0.766
21,RRIRCRPPRLPRPRPRPDCNPRP,-0.219
22,RRIRWRPPRLPRPRPRPAYWPRP,0.473
23,RRIRTRPPRLPRPRPRPTFPPRP,-0.0187
24,RRIRLRPPRLPRPRPRPAIEPRP,0.0744
25,RRIRWRPPRLPRPRPRPTWEPRP,0.314

row,Sequence,shrunken log2 fold change
1,RRIRQRPPRLPRPRPRPENHPRP,-0.176
2,RRIRIRPPRLPRPRPRPTNSPRP,-0.827
3,RRIRTRPPRLPRPRPRPFQDPRP,0.00739
4,RRIRNRPPRLPRPRPRPILPPRP,-0.297
5,RRIRDRPPRLPRPRPRPSKQPRP,-0.257
6,RRIRERPPRLPRPRPRPKHPPRP,-0.0977
7,RRIRQRPPRLPRPRPRPNLCPRP,-0.00174
8,RRIRTRPPRLPRPRPRPQPNPRP,0.0183
9,RRIRMRPPRLPRPRPRPCPKPRP,-0.214
10,RRIRDRPPRLPRPRPRPRHMPRP,0.0599
11,RRIRSRPPRLPRPRPRPPWIPRP,-0.0981
12,RRIRRRPPRLPRPRPRPHGPPRP,0.267
13,RRIRRRPPRLPRPRPRPSDYPRP,-0.185
14,RRIRIRPPRLPRPRPRPHDTPRP,-0.548
15,RRIRFRPPRLPRPRPRPKDGPRP,-0.184
16,RRIRKRPPRLPRPRPRPIYEPRP,-0.0432
17,RRIRWRPPRLPRPRPRPTRLPRP,0.411
18,RRIRGRPPRLPRPRPRPDHCPRP,0.0254
19,RRIRDRPPRLPRPRPRPQLIPRP,0.0732
20,RRIRTRPPRLPRPRPRPRYYPRP,-0.112
21,RRIRIRPPRLPRPRPRPNAEPRP,-0.151
22,RRIRPRPPRLPRPRPRPILIPRP,-0.106
23,RRIRTRPPRLPRPRPRPTYMPRP,-0.32
24,RRIRSRPPRLPRPRPRPCHNPRP,-0.364
25,RRIRRRPPRLPRPRPRPNLEPRP,0.442

row,Sequence,shrunken log2 fold change
1,RRIRFRPPRLPRPRPRPLMHPRP,-0.246
2,RRIRMRPPRLPRPRPRPPPHPRP,1.62
3,RRIRVRPPRLPRPRPRPFVHPRP,-0.17
4,RRIRYRPPRLPRPRPRPCPIPRP,0.0143
5,RRIRIRPPRLPRPRPRPCPPPRP,-0.328
6,RRIRHRPPRLPRPRPRPNENPRP,-0.579
7,RRIRHRPPRLPRPRPRPHEPPRP,-0.0274
8,RRIRERPPRLPRPRPRPYTCPRP,-0.398
9,RRIRNRPPRLPRPRPRPAAWPRP,0.0193
10,RRIRIRPPRLPRPRPRPPIAPRP,-0.109
11,RRIRFRPPRLPRPRPRPDCSPRP,0.0229
12,RRIRERPPRLPRPRPRPCYFPRP,-0.917
13,RRIRCRPPRLPRPRPRPEMKPRP,0.0473
14,RRIRSRPPRLPRPRPRPSSKPRP,-0.219
15,RRIRARPPRLPRPRPRPYMFPRP,-0.262
16,RRIRRRPPRLPRPRPRPKTKPRP,-0.146
17,RRIRLRPPRLPRPRPRPNVDPRP,-0.492
18,RRIRPRPPRLPRPRPRPCSPPRP,0.0563
19,RRIRKRPPRLPRPRPRPLPAPRP,1.13
20,RRIRLRPPRLPRPRPRPCELPRP,-0.358
21,RRIRSRPPRLPRPRPRPYYNPRP,-0.906
22,RRIRIRPPRLPRPRPRPCAPPRP,-0.506
23,RRIRYRPPRLPRPRPRPWPDPRP,-0.137
24,RRIRCRPPRLPRPRPRPATLPRP,-0.154
25,RRIRFRPPRLPRPRPRPEKIPRP,0.102
